These results are taken from US20210284749A1 (ABL BIO, published 2021).

The target of one test is T1, human BCMA-Fc/His (1-51) (human, UniProt Q02223 1-51).
T1 construct: also called recombinant human BCMA-Fc/His; recombinant human BCMA-His (Sino Biological Inc.); not shown: Fc region; C-terminal His tag
T1 sequence: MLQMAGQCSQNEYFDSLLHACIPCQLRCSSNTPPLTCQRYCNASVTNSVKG
Description: BLI (Octet), antigen on Ni-NTA biosensor, IgG in solution. The protocol: A 96-well black microplate was mounted on a Biosensor tray case, 200 μl of 1XKB was added to each of the 8 wells, and then 8 Ni-NTA biosensors (Fortebio) were inserted thereto for hydration for 10 minutes. For antigen fixation, 5 μg/ml of recombinant human BCMA-His (Sino Biological Inc.) was diluted using 1XKB. Experiments were performed with a threshold of 0.5 to 1.0 nm, and Octet Data Acquisition 9.0 software was activated to create an Octet program template. The first step was for Baseline 1, the second step was for loading, and the threshold was fixed to 0.5 to 1.0 nm. In the third step, which was for Baseline 2, association for 5 minutes and dissociation for 20 minutes were performed. A plate temperature was fixed to 30° C., and the prepared buffer solution was placed in order into a new 96-well black microplate according to the Octet program template. 200 μl of 1XKB used as Baseline 1 and recombinant human BCMA-Fc/His which is an antigen to be loaded were diluted to 5 μg/ml, and 200 μl of the dilution was added thereto. After adding 200 μl of 1XKB used as Baseline 2, 200 μl of the antibody to be reacted with the antigen was dispensed, and the instrument was operated. After completion of the experiment, an association constant (kon), a dissociation constant (kdis), and an equilibrium dissociation constant (KD) for each antibody were analyzed and calculated with Octet Analysis 9.0 software.
(BLI is a label-free optical method that tracks binding on a fibre tip over time.)

Test [1] deals with T2, recombinant human BCMA (ELISA antigen, construct not specified) (human, UniProt Q02223 1-54).
T2 construct: Fc 1-51; Fc/His 1-51; Fc 4-48) was coated in these ELISAs; also called recombinant BCMA; recombinant protein
T2 sequence: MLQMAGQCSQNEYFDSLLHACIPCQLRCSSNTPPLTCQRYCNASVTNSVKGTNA
Put plainly: ELISA on coated recombinant human BCMA, antibody titrated, HRP anti-Fab detection, absorbance 450 nm. As for the experimental part:
Specific binding abilities of the anti-BCMA IgG antibodies isolated in Example 1.4 to recombinant BCMA protein were analyzed by ELISA.
Using recombinant human BCMA or monkey BCMA as an antigen, and HRP-conjugated Fab polychronal antibody reagent (Pierce, 31414) as a secondary antibody, ELISA was performed as described in Example 1.3.
(An ELISA detects its analyte on a solid surface through an enzyme-linked reagent.)

Test [2] addresses T3, human BCMA expressed on cell surface (H929, OPM-2, CHOK1-hBCMA cells) (human, UniProt Q02223 1-184).
T3 construct: also called cell-surface BCMA; BCMA on cell surface
T3 sequence: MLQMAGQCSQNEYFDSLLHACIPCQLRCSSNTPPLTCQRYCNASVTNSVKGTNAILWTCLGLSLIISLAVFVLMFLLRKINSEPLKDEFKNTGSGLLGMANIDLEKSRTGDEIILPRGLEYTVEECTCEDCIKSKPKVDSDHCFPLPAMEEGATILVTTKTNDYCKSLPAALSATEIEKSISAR
Description: FACS on H929 cells.

The target of test [3] is T4, human monomeric BCMA antigen (human, UniProt Q02223 5-54, limits assumed).
T4 construct: also called recombinant human BCMA antigens
T4 chain: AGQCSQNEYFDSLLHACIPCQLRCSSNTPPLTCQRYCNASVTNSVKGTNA
Description: SPR (Biacore T200), antibody captured on protein A chip, antigen 6.25-100 nM. The protocol:
In particular, the prepared antibodies were diluted with a 1×HPS-EP buffer (GE Healthcare, BR-1006-69). The target antigen-binding affinity analysis was performed using a Biacore T200 (GE Healthcare). The antibodies were flowed onto a protein A chip at a contact time of 60 seconds, a stabilization time of 30 seconds, and a flow rate of 30 μl/min until a capture level reached 128 RU (Response Unit), thereby preparing an antibody-captured protein A chip.
The antigen was sequentially diluted with a 1×HPS-EP buffer, by 2-fold each time, from 100 nM to 6.25 nM, thereby preparing a total of […] samples. The 1×HPS-EP buffer was used as a negative control group (blank).
The prepared antigen was flowed across the antibody-captured protein A chip at a flow rate of 30 μl/min for an association time of 60 seconds, followed by a disassociation phase for 180 seconds. Regeneration was performed with a 10-mM Glycine-HCL (pH 1.5) buffer (GE Healthcare, BR-1003-54) at a flow rate of 30 μl/min for a contact time of 30 seconds.

Test [4] addresses T2, recombinant human BCMA (ELISA antigen, …). Put plainly: ELISA on recombinant BCMA.

Residue numbers refer to the chain shown, from its start.

B1: anti-BCMA IgG antibody 5C3 (antibody, V domains shown)
VH: EVQLLESGGGLVQPGGSLRLSCAASGFTFSDYYIHWVRQAPGKGLEWVSAISGSGGSTYYADSVKGRFTISRDNSKNTLYLQMNSLRAEDTAVYYCASDLGDTTFDSWGQGTLVTVSS
VL: EIVLTQSPGTLSLSPGERATLSCQASDDISNYLNWYQQKPGQAPRLLIYGVSNRASGIPDRFSGSGSGTDFTLTISRLEPEDFAVYYCQQSYSTPPITFGQGTKLEIKR
In the case of B1, in the test with human BCMA-Fc/His (1-51), the Kd (commonly a measure of binding affinity in units of concentration) came to 16400 pM; the koff – broadly, the first-order rate constant of dissociation – amounted to 0.00966 s⁻¹; the kon (in general, the rate constant with which the complex forms) was 591000 M⁻¹ s⁻¹. In addition, the EC50 (read off the curve) – broadly, the concentration that produces a half-maximal response – in test [1] was around 0.9 µg/mL.

B2: anti-BCMA IgG antibody 4H9 (antibody, V domains shown)
VH: EVQLLESGGGLVQPGGSLRLSCAASGFTFSGYSMSWVRQAPGKGLEWVSSIYHTGYTYYNPSLKSRFTISRDNSKNTLYLQMNSLRAEDTAVYYCARYKSGAFDIWGQGTLVTVSS
VL: EIVLTQSPGTLSLSPGERATLSCRASQSVSRNLAWYQQKPGQAPRLLIYGVSSRATGIPDRFSGSGSGTDFTLTISRLEPEDFAVYYCQQYGSSPPTFGQGTKVEIKR
For B2, in the test with human BCMA-Fc/His (1-51), the Kd is 1290 pM, the koff was found to be 0.00179 s⁻¹ and the kon amounted to 1.38e+06 M⁻¹ s⁻¹. Further, the “EC50 (read off the curve)” value in test [1] was around 0.01 µg/mL.

B3: anti-BCMA IgG antibody 2C6 (antibody, V domains shown)
VH: EVQLLESGGGLVQPGGSLRLSCAASGFTFSNYGMSWVRQAPGKGLEWVSSIDYNGSTYYNPSLKSRFTISRDNSKNTLYLQMNSLRAEDTAVYYCAKEHGLFDSWGQGTLVTVSS
VL: EIVLTQSPGTLSLSPGERATLSCRVSQSISSYLNWYQQKPGQAPRLLIYDASTRAIGIPDRFSGSGSGTDFTLTISRLEPEDFAVYYCQQVNSYPITFGQGTKVEIKR
In the test with human BCMA-Fc/His (1-51), B3 had a Kd of 370 pM, a koff of 0.000403 s⁻¹ and a kon of 1.09e+06 M⁻¹ s⁻¹. Also, the “EC50 (read off the curve)” value in test [1] was around 0.05 µg/mL.

B4: mutant antibody 5A6 LM6 (antibody, V domains shown)
VH: EVQLLESGGGLVQPGGSLRLSCAASGFTFSNYGVHWVRQAPGKGLEWVSYISYSGGTYYNPSLKSRFTISRDNSKNTLYLQMNSLRAEDTAVYYCARDSDDFGFDYWGQGTLVTVSS
VL: QSVLTQPPSASGTPGQRVTISCQGESLRSYYVNWYQQLPGTAPKLLIYDHSKRPTGVPDRFSGSKSGTSASLAISGLRSEDEADYYCQSYDASTVVFGGGTKLTVLG
notes: Light chain CDR mutant of 5A6 (IgG1); heavy chain as 5A6
With B4, in test [2], the MFI was 78.9. In addition, in test [3], binding was put at a Kd of 18100 pM, the koff was 0.00922 s⁻¹ and the kon is 509000 M⁻¹ s⁻¹. In test [4], the EC50 (usually the concentration at which the effect is half-maximal) came to 53.7 pM.

B5: mutant antibody 5A6 LM2 (antibody, V domains shown)
VH: B4 VH
VL: B4 VL with E25D, S26A, A92S
notes: as for B4
Consider B5, for which the MFI in test [2] was found to be 66.7. Also, in test [4], the EC50 worked out at 50.9 pM.

B6: mutant antibody 5A6 LM7 (antibody, V domains shown)
VH: B4 VH
VL: B4 VL with E25D, S26A, D91E, A92S
notes: as for B4
Consider B6, for which the MFI in test [2] came out at 71.1. In addition, the EC50 in test [4] was 105 pM.

B7: mutant antibody 5A6 LM8 (antibody, V domains shown)
VH: B4 VH
VL: B4 VL with E25D, S26A
notes: as for B4
In test [2], B7 had an MFI of 68.6. For the same molecule, the EC50 in test [4] is 68 pM.

B8: mutant antibody 5A6 LM4 (antibody, V domains shown)
VH: B4 VH
VL: B4 VL with E25D
notes: as for B4
With B8, the MFI in test [2] turned out to be 77.1. For the same molecule, the EC50 in test [4] was found to be 82.3 pM.

B9: mutant antibody 5A6 LM5 (antibody, V domains shown)
VH: B4 VH
VL: B4 VL with D91E, A92S
notes: as for B4
On to B9, for which the MFI in test [2] stood at 81.4. The EC50 in test [4] is 103 pM.

B10: mutant antibody 5A6 LM3 (antibody, V domains shown)
VH: B4 VH
VL: B4 VL with E25D, D91E, A92S
notes: as for B4
B10 gave an MFI in test [2] of 84.6. Further, in test [4], the EC50 turned out to be 133 pM.

B11: mutant antibody 5A6 LM1 (antibody, V domains shown)
VH: B4 VH
VL: B4 VL with A92S
notes: as for B4
In test [2], B11 yielded an MFI of 83.4. For the same molecule, the EC50 in test [4] turned out to be 81.8 pM.

B12: mutant antibody 5D5 LM4 (antibody, V domains shown)
VH: EVQLLESGGGLVQPGGSLRLSCAASGFTFSDYGLSWVRQAPGKGLEWVSLIDSSGSSTFYADSVKGRFTISRDNSKNTLYLQMNSLRAEDTAVYYCAKEHGLFDSWGQGTLVTVSS
VL: EIVLTQSPGTLSLSPGERATLSCKASQDIDDAINWYQQKPGQAPRLLIYDASLRATGIPDRFSGSGSGTDFTLTISRLEPEDFAVYYCQQSLRTPITFGQGTKLEIKR
notes: Light chain CDR mutant of 5D5 (IgG1); heavy chain as 5D5
For the molecule B12, the MFI in test [2] was 62.3. For the same molecule, in test [3], binding was characterised by a dissociation constant (Kd) of 14200 pM, the koff is 0.0594 s⁻¹ and the kon is 4.17e+06 M⁻¹ s⁻¹. Also, the EC50 in test [4] turned out to be 70.8 pM.

B13: mutant antibody 5D5 LM5 (antibody, V domains shown)
VH: B12 VH
VL: B12 VL with A32E
notes: as for B12
B13 had an MFI in test [2] of 73.6. Besides, in test [4], the EC50 worked out at 76.3 pM.

B14: mutant antibody 5D5 LM2 (antibody, V domains shown)
VH: B12 VH
VL: B12 VL with D31E, A32D
notes: as for B12
Consider B14, for which the MFI in test [2] amounted to 29. The concentration for a half-maximal effect (EC50) in test [4] was found to be 85.8 pM.

B15: mutant antibody 5D5 LM1 (antibody, V domains shown)
VH: B12 VH
VL: B12 VL with D31N, A32D
notes: as for B12
As for B15, the MFI in test [2] was determined as 32. Moreover, the EC50 in test [4] came to 93.9 pM.

B16: mutant antibody 5D5 LM3 (antibody, V domains shown)
VH: B12 VH
VL: B12 VL with D31A, A32D
notes: as for B12
In test [2], B16 had an MFI of 31.5. The EC50 in test [4] was 59.3 pM.

B17: anti-BCMA IgG antibody 2F8 (antibody, V domains shown)
VH: EVQLLESGGGLVQPGGSLRLSCAASGFTFSNYGMSWVRQAPGKGLEWVSEIIPIFDTSNYAQKFQGRFTISRDNSKNTLYLQMNSLRAEDTAVYYCAKIPGNRHDYWGQGTLVTVSS
VL: QSVLTQPPSASGTPGQRVTISCTRMQRQSDWYQQLPGTAPKLLIYDNNKRPLGVPDRFSGSKSGTSASLAISGLRSEDEADYYCQSYDSNAYVVFGGGTKLTVLG
In the test with human BCMA-Fc/His (1-51), B17 gave a Kd of 104000 pM, a koff of 0.0152 s⁻¹ and a kon of 147000 M⁻¹ s⁻¹. The “EC50 (read off the curve)” value in test [1] is around 0.07 µg/mL.
